Biological target: presenilin-1 (wild-type PS1) (UniProt P49768)
Assay: FRET or BRET

Alexa 430 donor lifetime with Cy3 acceptor on PS1 CT: 1350 psec | FRET strength: 0.3
Substance: V5-tagged ubiquilin-1 transcript variant 3 (TV3) (natural protein)
